Measurements as given in PMC3281933.

Target: low density lipoprotein receptor-related protein 1 (LRP1) (human (endogenous in 1064Sk human skin fibroblasts))

B1: CCN1 (CYR61) (natural protein)
chain: TCPAACHCPLEAPKCAPGVGLVRDGCGCCKVCAKQLNEDCSKTQPCDHTKGLECNFGASSTALKGICRAQSEGRPCEYNSRIYQNGESFQPNCKHQCTCIDGAVGCIPLCPQELSLPNLGCPNPRLVKVTGQCCEEWVCDEDSIKDPMEDQDGLLGKELGFDASEVELTRNNELIAVGKGSSLKRLPVFGMEPRILYNPLQGQKCIVQTTSWSQCSKTCGTGISTRVTNDNPECRLVKETRICEVRPCGQPVYSSLKKGKKCSKTKKSPEPVRFTYAGCLSVKKYRPKYCGSCVDGRCCTPQLTRTVKMRFRCEDGETFSKNVMMIQSCKCNYNCPHANEAAFPFYRLFNDIHKFRD
With B1 the CCN1/TNFα-induced apoptosis of human skin fibroblasts (CCN1 2 µg/ml, TNFα 10 ng/ml, 5 hrs) after pre-incubation with 1 µM recombinant RAP was 60%.
